Results reported in patent publication US20260265360A1, “USE OF ANTI-FAM19A5 ANTAGONISTS FOR TREATING HEARING DISORDERS” (NEURACLE SCIENCE CO., LTD., priority 2023, published 2026).
Values belong to the molecule of their own block, whether it stands above or below them.

Assays:
[1] = tested on: FAM19A5 epitope fragment F5 mutant peptides F5-1 to F5-8; experiment: ELISA binding to mutant F5 peptide fragments (alanine substitution); set-up: species or system human
Experimental: (§1) Overlapping peptide fragments (F1-F6 epitope fragments; SEQ ID NOs: 178-183) of the human FAM19A5 protein were synthesized and conjugated to BSA (SEQ ID NOs: 322-327). Binding of the different anti-FAM19A5 antibodies to the BSA-conjugated peptide fragments F1-F6 was determined by Western blot analysis or ELISA assay. For the Western blot analysis, BSA-conjugated FAM19A5 fragments F1-F6 were separated by SDS polyacrylamide gel electrophoresis and transferred to a nitrocellulose membrane by the standard procedure. The membrane was incubated with the anti-FAM19A5 antibody (e.g., 1-65, […], 1-65-scFv-rabbit Fc-SSS), and the antigen-antibody complexes were detected with the appropriate secondary antibody conjugated with horse-radish peroxidase (anti-rabbit IgG (Fc specific)-HRP, 1:4000 dilution). For the ELISA assay, the following protocol was used. FAM19A5 fragment F1-F6 (diluted to 1 μg/mL in 50 mM carbonate buffer (Biosesang) or to 20 μg/mL for high concentration analysis) were used to coat the wells of 96-well immuno plates (Thermo Scientific) (100 μL/well) overnight at 4° C. and then subsequently washed twice in 1×PBS. The plates were then blocked with the blocking buffer (100 μL/well) for 1 hour at room temperature. During the 1-hour incubation, the relavant anti-FAM19A5 antibodies were diluted to 1 μg/mL (or 20 μg/mL for high concentration analysis) in the diluent buffer. Once the plates were washed (2× using 1×PBS), the diluted anti-FAM19A5 antibodies were added to the appropriate wells, and the plates were incubated at room temperature for 1 hour. The plates were subsequently washed for a total of five times using the washing buffer. Next, the ODP substrate (prepared by dissolving one ODP tablet (O-phenylenediamine Dihydrochloride, Thermo) into 9 mL of sterilized deionized water and 1 mL of 10× stable Peroxide Stable buffer (Theromo)) was added to each of the wells, and the color change reaction was allowed to occur for 10 minutes. This reaction was stopped by adding 100 μL of 2N H2SO4 (Daejung) to the wells. The absorption value of each of the wells was detected at 492 nm using a 96-well microplate reader (Molecular Device).
Next, to identify the specific amino acid residues within the eptitope fragment F5 that the 1-65 and P2-C12 antibodies bind to, different amino acid residues of the F5 fragment were replaced with alanine as shown in Table 11 (below). The mutated residues are bolded and underlined. The binding affinity of the indicated anti-FAM19A5 antibodies were measured using an ELISA assay as described above.

FAM19A5 antigen = FAM19A5 antigen (Homo sapiens, UniProt Q7Z5A7); experiment: Cross-competition two-site sandwich ELISA; assay type: binding; conditions: antibodies 1-65, P2-A03, P2-F11, 13B4, 2-13, 3-2; cross-competition = S/N ratio lower than 2
Chain of FAM19A5 antigen (Q7Z5A7 44-132): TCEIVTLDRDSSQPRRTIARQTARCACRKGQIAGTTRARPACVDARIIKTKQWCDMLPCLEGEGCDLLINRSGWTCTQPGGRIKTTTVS
Experimental: The term “S/N” refers to the signal to noise ratio, which is measured as follows: [O.D. of 10 ng/ml antigen]/[O.D. of 0 ng/ml antigen].
Next, a two-site sandwich ELISA was used as described below to assess whether the different anti-FAM19A5 antibodies with similar binding epitopes cross-compete with each other.
First, the indicated anti-FAM19A5 antibodies were diluted in 1×PBS to a concentration of 10 μg/mL. The diluted anti-FAM19A5 antibodies (10 μg/mL in 1×PBS) (“capture antibody”) were used to coat the 96-well plates (100 μL/well) at 37° C. for approximately 1 hour. After the incubation, the plates were washed with the washing buffer (0.01% Tween-20/PBS; also called 0.01% PBST) for a total of five washes, blocked with the blocking solution (5% BSA/PBS; also called 5% PBSA) (250 μL/well) for one hour at 37° C., and then washed again. Next, 100 μg/mL of the FAM19A5 antigen (diluted in PBS containing 5% BSA, 0.01% Tween-20; also called 5% PBSAT; “diluent buffer) was added to each of the wells, and the 96-well plates were incubated for 2 hours at 37° C. After the incubations, the plates were washed using 0.01% PBST for a total of five washes. After the final wash, the indicated biotinylated anti-FAM19A5 antibodies (“detection antibody”) (diluted to lug/mL in 5% PBSAT) were added to the relevant wells (100 μL volume) and the plates were incubated for an additional 1 hour at 37° C. Afterwards, the plates were washed again with 0.01% PBST (five total washes). Next, 100 μL of the diluted (1/2000 in 5% PBSAT) Streptavidin-HRP (1 mg/mL, Sigma, USA) was added to the wells, and the plates were incubated for 30 minutes at room temperature. The plates were then washed and treated with 100 μL of the TMB substrate ([…], Thermo Fisher Scientific). After an additional 30-minute incubation at room temperature, the color change reaction was induced by the addition of the TMB substrate. This reaction was stopped using 50 μL of sulfuric acid (2N H2SO4), and the extent of color change was detected via absorption at 450 nm with reference wavelength at 620 nm using a 96 well microplate reader (Molecular Device).

[2] = tested on: human FAM19A5 protein epitope fragments F1-F6; experiment: Epitope mapping: binding to BSA-conjugated FAM19A5 epitope fragments F1-F6 (Western blot / ELISA); conditions: for binding to epitope fragment F5: Western blot and/or ELISA
Experimental: as §1

FAM19A5 mutants M1 to M8 [3] = molecular target: T1, FAM19A5 mutants M1 to M8 (Homo sapiens, UniProt Q7Z5A7); experiment: Epitope mapping ELISA with FAM19A5 mutants M1-M8; assay type: binding
T1 construct: made in house; host or cells: phage display with helper phage
T1 sequence (Q7Z5A7 with tags, fused parts or gaps isoform Q7Z5A7-2, change not shown): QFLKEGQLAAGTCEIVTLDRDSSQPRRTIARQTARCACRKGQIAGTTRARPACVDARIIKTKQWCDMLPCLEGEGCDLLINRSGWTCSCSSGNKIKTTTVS
Experimental: (§2) To further characterize the binding epitopes of the anti-FAM19A5 antibodies disclosed in the present disclosure, the amino acid sequences for the different FAM19 family members (i.e., FAM19A1-5) were aligned. […] The amino acid sequences of these regions were replaced with the consensus sequence of the corresponding regions for the FAM19A1-4 proteins. See Table 13 (the mutated amino acid residues are bolded and underlined).
(§3) The mutant FAM19A5-expressing phages were prepared as follows. To prepare the media for phage culture, 55.6 ml of 2M Glucose (D-(+)-Glucose, Sigma), 5 mL of 1M MgCl2 (Magnesium chloride, Junsei) 1 mL of 34 mg/mL chloramphenicol (Sigma) were added to 2×YT media. Colonies obtained through mono-phage ELISA were selected and placed in 5 mL of prepared media (2×YT-GMC) to be cultured for 16 hours at 37° C. with shaking incubator (VS-8480, Vision). 100 μL of each culture was transferred to 10 mL 2×YT-GMC individually which were cultured at 37° C. in the incubator until detection value at O.D. 600 nm reached 0.5. Once detection value has reached 0.5 at O.D. 600 nm, 5 mL of each culture were obtained as samples to be infected. Following sample preparation, 50 μL of […] was added to individual samples then incubated at 37° C. without shaking for 30 minutes and with shaking for additional 30 minutes. Individual cultures were centrifuged for 15 minutes at 3,850 rpm using Micro centrifuge (Micro12, Hanil). The supernatants of centrifuged cultures were removed to be kept separate and replaced with 5 mL of 2×YT media containing 1 mL of IM IPTG (AG Scientific), 5 mL of 1M MgCl2.1 ml of 70 μg/μL kanamycin (Biopure) and 1 mL of Chloramphenicol. The resulting pellets were dispersed thoroughly in newly added media followed by incubation at 30° C. for 16 hours with stirring.

FAM19A5 mutants M1 to M8 [4] = molecular target: T2, FAM19A5 mutants M1 to M8 (Homo sapiens, UniProt Q7Z5A7, D109K/G107E/I112P/L110T/N113D/R114N); experiment: Epitope mapping ELISA with FAM19A5 mutants M1-M8; assay type: binding
T2 construct: made in house; host or cells: phage display with helper phage
T2 sequence (Q7Z5A7 26-125 isoform Q7Z5A7-2 G100E/D102K/L103T/I105P/N106D/R107N): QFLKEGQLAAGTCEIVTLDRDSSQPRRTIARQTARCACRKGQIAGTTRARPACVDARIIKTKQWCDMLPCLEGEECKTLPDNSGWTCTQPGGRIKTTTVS
Experimental: as §2, §3

FAM19A5 mutants M1 to M8 [5] = molecular target: T3, FAM19A5 mutants M1 to M8 (Homo sapiens, UniProt Q7Z5A7, D98Q/K92L/K94R/L100E/P101L/Q95W/T93Q); experiment: Epitope mapping ELISA with FAM19A5 mutants M1-M8; assay type: binding
T3 construct: made in house; host or cells: phage display with helper phage
T3 sequence (Q7Z5A7 26-125 isoform Q7Z5A7-2 K85L/T86Q/K87R/Q88W/D91Q/L93E/P94L): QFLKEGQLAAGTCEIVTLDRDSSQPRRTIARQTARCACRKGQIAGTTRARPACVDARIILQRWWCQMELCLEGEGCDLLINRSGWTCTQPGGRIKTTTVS
Experimental: as §2, §3

FAM19A5 mutants M1 to M8 [6] = molecular target: T4, FAM19A5 mutants M1 to M8 (Homo sapiens, UniProt Q7Z5A7, D53C/P57N/Q56K/S54C/S55N); experiment: Epitope mapping ELISA with FAM19A5 mutants M1-M8; assay type: binding
T4 construct: made in house; host or cells: phage display with helper phage
T4 sequence (Q7Z5A7 26-125 isoform Q7Z5A7-2 D46C/S47C/S48N/Q49K/P50N): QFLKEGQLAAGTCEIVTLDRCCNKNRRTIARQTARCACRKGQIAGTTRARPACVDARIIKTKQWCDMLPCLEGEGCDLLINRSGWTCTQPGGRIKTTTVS
Experimental: as §2, §3

[7] = tested on: FAM19A5 epitope fragment F2 mutant peptides; experiment: ELISA binding to mutant F2 peptide fragments (alanine scanning); set-up: species or system human
Description: FIGS. 25A-25J provide the results of the alanine scanning analysis, showing the specific amino acid residues in the epitope F2 fragment that are important for the binding of the various 3-2 antibody variants to FAM19A5 protein. FIGS. 25A, 25B, 25C, and 25D show the results for the following antibodies generated in HEK293F cells: (A) wild-type 3-2 antibody, (B) 1-30 antibody, (C) 1-32 antibody, and (D) 6-10 antibody, respectively. FIGS. 25E, 25F, 25G, 25H, 25I, and 25J show the results for the following antibodies generated in CHO cells: (E) 1-17 antibody, (F) 1-30 antibody, (G) 1-32 antibody, (H) 4-11 antibody, (I) 6-10 antibody, and (J) low-PI antibody, respectively. […] Binding of the antibodies to the different mutant peptides was measured using ELISA.
Overlapping peptide fragments (F1-F6 epitope fragments; SEQ ID NOs: 178-183) of the human FAM19A5 protein were synthesized and conjugated to BSA (SEQ ID NOs: 322-327). Binding of the different anti-FAM19A5 antibodies to the BSA-conjugated peptide fragments F1-F6 was determined by Western blot analysis or ELISA assay. […] The membrane was incubated with the anti-FAM19A5 antibody (e.g., 1-65, […], 1-65-scFv-rabbit Fc-SSS), and the antigen-antibody complexes were detected with the appropriate secondary antibody conjugated with horse-radish peroxidase (anti-rabbit IgG (Fc specific)-HRP, 1:4000 dilution). […]

B2: P2-C12: anti-FAM19A5 antibody; VH SEQ ID NO: 155, VL SEQ ID NO: 166 (antibody, V domains shown)
VH: QSLEESGGRLVTPGTPLTLTCTVSGFSLSTYAVTWVRQAPGKGLEWIGYINWRGGTSYANWAKGRFTISKTSSTTVDLKMTSPTTEDTATYFCARDASSGAAFGSYGMDPWGPGTLVTVSS
VL: ELDMTQTPSSVSAAVGGTVTIKCQASQSISSYLSWYQQKPGQPPKLLIYEASKLASGVPSRFSGSGYGTEFTLTISDLECADAATYYCQQGYSSTNVWNAFGGGTNVEIK
modifications: P2-C12 VH; P2-C12 VL
- binding to F5 mutant peptides #1, 6, and 8 [1]: not to mutant peptides #1, 6, and 8
- binding to F5 mutant peptides #2, 3, 4, 5, and 7 [1]: high binding
- binding to the other fragments (F1-F4 and F6) ([2]; ELISA): not significantly
- binding to epitope fragment F5 [2]: strongly
- binding to FAM19A5 mutant M8 (FAM19A5 mutants M1 to M8 [3]): strongly binding
- binding to FAM19A5 mutant M6 (FAM19A5 mutants M1 to M8 [5]): failed to bind

B4: 1-28: anti-FAM19A5 antibody; VH SEQ ID NO: 38, VL SEQ ID NO: 42 (antibody, V domains shown)
VH: AVTLDESGGGLQTPGGALSLVCKASGFDFSDYGMGWVRQAPGKGLEWVAAIRSDGSNPSYGSAVKGRATISKDNGRSTVRLQLNNLRAEDTATYYCAKDGNGYCALDAYRSGGYSCGVYPGSIDAWGHGTEVIVSS
VL: ALTQPSSVSANLEGTVEITCSGSGYGYGWYQQKSPGSAPVTVIYQNDKRPSDIPSRFSGSKSGSTGTLTITGVQVEDEAVYYCGSEDSSTLAGIFGAGTTLTVL
modifications: 1-28 VH; 1-28 VL
- binding to FAM19A5 mutant M2 (FAM19A5 mutants M1 to M8 [6]): failed to bind
- binding to mutant F2 peptide fragments #1, 2, 6, and 8-13 [7]: bound strongly
- binding to mutant F2 peptide fragments #3, 4, 5, and 7 [7]: much reduced binding

Continued, in another order:

- binding to F5 fragment with D13, L14, I16 or R18 mutated to alanine ([1]; numbering per SEQ ID NO: 275): no longer able to bind
- binding to F5 mutant peptides #1, 5, 6, and 7 ([1]; similar affinity): able to bind
- cross-competition with the other anti-FAM19A5 antibodies (FAM19A5 antigen): cross-competed with one another
- binding to FAM19A5 mutant M8 (FAM19A5 mutants M1 to M8 [3]): failed to bind
- binding to FAM19A5 mutant M7 (FAM19A5 mutants M1 to M8 [4]): failed to bind
- binding to FAM19A5 mutant M6 (FAM19A5 mutants M1 to M8 [5]): failed to bind
B1: 1-65: anti-FAM19A5 antibody; VH SEQ ID NO: 37, VL SEQ ID NO: 41 (antibody, V domains shown)
VH: AVTLDESGGGLQTPGGALSLVCKASGFTFSSYQMGWVRQAPGKGLEWVGVINKSGSDTSYGSAVKGRATISRDNGQSTVRLQLNNLRAEDTGTYFCAKGSASYITAATIDAWGHGTEVIVSS
VL: ALTQPSSVSANPGETVKITCSGGGSSGYGYGWYQQKSPSSAPLTVIYWNDKRPSDIPSRFSGSKSGSTHTLTITGVQAEDEAVYFCGNDDYSSDSGYVGVFGAGTTLTVL
modifications: 1-65 VH; 1-65 VL
- binding to epitope fragment F5 [2]: bound strongly

- cross-competition with the other anti-FAM19A5 antibodies (FAM19A5 antigen): cross-competed with one another
- binding to FAM19A5 mutant M8 (FAM19A5 mutants M1 to M8 [3]): failed to bind
- binding to FAM19A5 mutant M7 (FAM19A5 mutants M1 to M8 [4]): reduced binding
- binding to FAM19A5 mutant M6 (FAM19A5 mutants M1 to M8 [5]): failed to bind
B3: 13B4: anti-FAM19A5 antibody; VH SEQ ID NO: 156, VL SEQ ID NO: 167 (antibody, V domains shown)
VH: QVQLQESGPGLVKPSGTLSLNCAVSGGSISSSNWWSWVRQPPGKGLEWIGEIYHGGTTNYNPSLKGRVTMSVDKTKNQFSLRLSSVTAVDTAVYYCARWQLVGGLDVWGQGTTVTVSS
VL: SYELTQPLSVSVSPGQTASITCSGDKLGNVYASWYQQKPGQSPTLVIYQDNKRPSGIPERFSGSNSGKTATLTISGTQALDEADYYCQAWDSSTAVFGGGTKLTVL
modifications: 13B4 VH; 13B4 VL
